# ± gives the standard deviation.
# Assay: protein stability index of a GFP-peptide fusion (GPS, HEK-293T) (PSI 1-6); higher = more stable
# Details: c terminus: a fixed tail appended
# 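Note: 24-mer peptide tiles fused after GFP, lentivirally expressed, FACS-sorted into six equal bins by GFP/DsRed ratio, decoded by Illumina sequencing, PSI is the read-weighted mean bin number.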
sequence,measurement,setting,value
VDLFKQLCEKEPLGNVLFSPICLS [SERPINB5],protein stability index,treatment: DMSO,1.98 ± 0.18
same,protein stability index,"treatment: MLN4924 1 uM, 8 h",2.08 ± 0.41
ALGDAFADLSQKSPELQEEFGYNA [ARFIP2],protein stability index,treatment: DMSO,4.6 ± 0.17
same,protein stability index,"treatment: MLN4924 1 uM, 8 h",4.63 ± 0.22
MQPESGANGTVIAEFILLGLLEAP [OR3A1],protein stability index,treatment: DMSO,2.18 ± 0.24
same,protein stability index,"treatment: MLN4924 1 uM, 8 h",2.33 ± 0.42
GSPQQPGLSAPHSRQIPAPQGAVL [KISS1],protein stability index,treatment: DMSO,4.3 ± 0.15
same,protein stability index,"treatment: MLN4924 1 uM, 8 h",4.61 ± 0.28
GMASFRFPETTFISVTAYQNPQIT [TBX6],protein stability index,treatment: DMSO,2.34 ± 0.62
same,protein stability index,"treatment: MLN4924 1 uM, 8 h",2.29 ± 0.11
PVESHIQKNKKILKSAKDLPPDAL [KMT2E],protein stability index,treatment: DMSO,4.86 ± 0.24
same,protein stability index,"treatment: MLN4924 1 uM, 8 h",4.71 ± 0.44
DIAAMTNSLFIDRQKCMAHRTRYP [TEKT4],protein stability index,treatment: DMSO,2.45 ± 0.24
same,protein stability index,"treatment: MLN4924 1 uM, 8 h",2.57 ± 0.19
FSFRYQQELEEEIKELYENFCKHN [ATL3],protein stability index,treatment: DMSO,2.57 ± 0.38
same,protein stability index,"treatment: MLN4924 1 uM, 8 h",2.86 ± 0.44
TGAACRLVEAVLSGEVLNGAAVVR [HDAC6],protein stability index,treatment: DMSO,2.13 ± 0.35
same,protein stability index,"treatment: MLN4924 1 uM, 8 h",2.27 ± 0.28
HEVKDNYIPVIKRALNSVPVIIAA [RHOBTB3],protein stability index,treatment: DMSO,2.34 ± 0.34
same,protein stability index,"treatment: MLN4924 1 uM, 8 h",2.18 ± 0.17
MNALLEQKEQQERLREAAALGDIR [ANKRD40],protein stability index,treatment: DMSO,4.66 ± 0.24
same,protein stability index,"treatment: MLN4924 1 uM, 8 h",4.76 ± 0.18
GGAQASGTLIGVGQSVTAVGRIIA [MFSD9],protein stability index,treatment: DMSO,3.38 ± 0.34
same,protein stability index,"treatment: MLN4924 1 uM, 8 h",3.42 ± 0.2
VQSLQLSPRTRGSWSQPQPLKAPC [RASAL3],protein stability index,treatment: DMSO,3.54 ± 0.41
same,protein stability index,"treatment: MLN4924 1 uM, 8 h",3.68 ± 0.098
IQYLTENIWASQSVLSACDNLSDL [IQUB],protein stability index,treatment: DMSO,2.49 ± 0.34
same,protein stability index,"treatment: MLN4924 1 uM, 8 h",2.49 ± 0.3
IFNYMRLGSTKLSDKDKAVGIFNT [OR3A1],protein stability index,treatment: DMSO,2.1 ± 0.34
same,protein stability index,"treatment: MLN4924 1 uM, 8 h",2.36 ± 0.25
ALSPKTTITMAHLLAAREDLSKII [FAM98B],protein stability index,treatment: DMSO,2.29 ± 0.27
same,protein stability index,"treatment: MLN4924 1 uM, 8 h",2.55 ± 0.065
FYRSTAPSEDIWKKFELVPSPPTS [MYCL],protein stability index,treatment: DMSO,2.67 ± 0.15
same,protein stability index,"treatment: MLN4924 1 uM, 8 h",2.76 ± 0.32
IFLYARPNSTFPIDKSMTVVLTFI [OR4A15],protein stability index,treatment: DMSO,2.84 ± 0.37
same,protein stability index,"treatment: MLN4924 1 uM, 8 h",3 ± 0.3
KEAQYIRTERVEQAFRAIDRGDYY [PCMTD1],protein stability index,treatment: DMSO,3.31 ± 0.33
same,protein stability index,"treatment: MLN4924 1 uM, 8 h",3.34 ± 0.28
VWDASRAPRGTPDPGLGEGPALWL [PLEKHN1],protein stability index,treatment: DMSO,2.74 ± 0.25
same,protein stability index,"treatment: MLN4924 1 uM, 8 h",2.79 ± 0.38
NLLGEAAGGQDMADSMLMQGSRGL [HDAC6],protein stability index,treatment: DMSO,4.1 ± 0.34
same,protein stability index,"treatment: MLN4924 1 uM, 8 h",4.09 ± 0.081
TGASFQKAQQEFAAGVFSNPAVRT [SCAMP3],protein stability index,treatment: DMSO,3.73 ± 0.16
same,protein stability index,"treatment: MLN4924 1 uM, 8 h",3.79 ± 0.25
NISDLPFLAENSAFPKMALQAKQD [LCOR],protein stability index,treatment: DMSO,4.42 ± 0.2
same,protein stability index,"treatment: MLN4924 1 uM, 8 h",4.39 ± 0.2
KNLQQTTNTTSTQMTNIGVYVSNM [IQUB],protein stability index,treatment: DMSO,3.25 ± 0.29
same,protein stability index,"treatment: MLN4924 1 uM, 8 h",3.17 ± 0.22
LSPMTASSFLSFAELFSYVLQDRA [FEM1A],protein stability index,treatment: DMSO,2.47 ± 0.39
same,protein stability index,"treatment: MLN4924 1 uM, 8 h",2.26 ± 0.13
TYLSKVDPDGKKIKQIQQLFEEIL [FBXO33],protein stability index,treatment: DMSO,2.25 ± 0.24
same,protein stability index,"treatment: MLN4924 1 uM, 8 h",1.84 ± 0.26
ALKERADSLAKEIQYLKDLIEEVR [ATF4],protein stability index,treatment: DMSO,4.49 ± 0.36
same,protein stability index,"treatment: MLN4924 1 uM, 8 h",4.59 ± 0.057
GIPGWGFSGWISALVVPKGNTAVS [SCAMP3],protein stability index,treatment: DMSO,2.78 ± 0.72
same,protein stability index,"treatment: MLN4924 1 uM, 8 h",2.41 ± 0.52
SHCDSPSPQEDGQIMFDVEMHTSR [BNIP3L],protein stability index,treatment: DMSO,4.79 ± 0.31
same,protein stability index,"treatment: MLN4924 1 uM, 8 h",4.8 ± 0.38
DLTASHDAALLEMENNHTVAITIL [MTUS2],protein stability index,treatment: DMSO,2.86 ± 0.21
same,protein stability index,"treatment: MLN4924 1 uM, 8 h",2.85 ± 0.25
LSHLLGDAGSPYLIGLISDRLRRN [SPNS1],protein stability index,treatment: DMSO,2.18 ± 0.36
same,protein stability index,"treatment: MLN4924 1 uM, 8 h",2.16 ± 0.39
DCIFDKFECAWNGSDSVIMTGAYN [PPP2R2C],protein stability index,treatment: DMSO,2.68 ± 0.3
same,protein stability index,"treatment: MLN4924 1 uM, 8 h",2.74 ± 0.17
IPPSSDRTPEILKKALSGLSSRWK [CDS1],protein stability index,treatment: DMSO,2.39 ± 0.49
same,protein stability index,"treatment: MLN4924 1 uM, 8 h",2.29 ± 0.46
WGPWGPWGDCSRTCGGGVQFSSRD [ADAMTS4],protein stability index,treatment: DMSO,2.46 ± 0.36
same,protein stability index,"treatment: MLN4924 1 uM, 8 h",2.16 ± 0.14
MHLNAEGMLSYCDRYSEGIKHVLQ [CRYL1],protein stability index,treatment: DMSO,2.4 ± 0.29
same,protein stability index,"treatment: MLN4924 1 uM, 8 h",2.32 ± 0.42
DLKNVKSKIGSTDNIKYQPKGGQV [MAP2],protein stability index,treatment: DMSO,3.24 ± 0.16
same,protein stability index,"treatment: MLN4924 1 uM, 8 h",3.54 ± 0.32
PRSHFTTPAPMSSAWKTVACGGTR [MYBL2],protein stability index,treatment: DMSO,2.77 ± 0.32
same,protein stability index,"treatment: MLN4924 1 uM, 8 h",2.84 ± 0.17
EGGLYFERRPVAQSTDGARGKRGY [SPSB2],protein stability index,treatment: DMSO,4.55 ± 0.33
same,protein stability index,"treatment: MLN4924 1 uM, 8 h",5.03 ± 0.11
QLLKNNEKLITWLNKELNENQLVR [SASS6],protein stability index,treatment: DMSO,1.88 ± 0.62
same,protein stability index,"treatment: MLN4924 1 uM, 8 h",2.08 ± 0.38
KAQRDYELKKAAYDIEVNTRRAQA [FLOT1],protein stability index,treatment: DMSO,4.17 ± 0.11
same,protein stability index,"treatment: MLN4924 1 uM, 8 h",4.44 ± 0.085
PLDAGEYCVPRGNRRRFRVRQPIL [BEX1],protein stability index,treatment: DMSO,3.47 ± 0.42
same,protein stability index,"treatment: MLN4924 1 uM, 8 h",3.63 ± 0.25
EILHQQNIHQLQNRLSELEVANKD [SASS6],protein stability index,treatment: DMSO,3.99 ± 0.19
same,protein stability index,"treatment: MLN4924 1 uM, 8 h",4.13 ± 0.34
KREELCRQIQEEEDEKQRLQNEVR [SSNA1],protein stability index,treatment: DMSO,5.01 ± 0.22
same,protein stability index,"treatment: MLN4924 1 uM, 8 h",5.1 ± 0.075
VVEKLNLFLDLLQSYKDLCERHEK [SNX8],protein stability index,treatment: DMSO,2.19 ± 0.32
same,protein stability index,"treatment: MLN4924 1 uM, 8 h",2.23 ± 0.25

# Reference: the supplement of paper PMC10567573
